The term stoichiometry N denotes a count of units in the complex or per binding partner.

Data set [1] concerns the molecule itself. As to the kind of experiment: SEC; calibrated Superdex 75 gel-filtration column; 25 mM MES, 0.2 M NaCl, 2 mM EDTA, 2 mM TCEP, 5% glycerol, pH 6, 25 °C.
Data set [2] addresses T1, HlyU (VcHlyU), WT (Vibrio cholerae, UniProt P52695 1-108).
T1 sequence: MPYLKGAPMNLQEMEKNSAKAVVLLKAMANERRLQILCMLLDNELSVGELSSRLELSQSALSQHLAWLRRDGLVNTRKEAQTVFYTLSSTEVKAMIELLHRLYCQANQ
Kind of data set: fluorescence anisotropy; HlyU pretreated with 5-fold H2O2; text: no change in affinity; n=3; Table 1: 25 mM Hepes pH 7, 100 mM NaCl, 1 mM EDTA, 25 °C; Methods: 10 mM Hepes pH 7.0, 0.1 M NaCl, with or without 2 mM TCEP, 10 nM DNA. The conditions noted are these: protein: recombinant; chain copies: 2; label: 5'-fluorescein on strand 1; blunt. For orientation: Fluorescence polarisation rises when a labelled molecule tumbles more slowly, as on binding a larger partner.

The target in data set [3] is T1, HlyU (VcHlyU), WT. Kind of data set: fluorescence anisotropy; reduced HlyU (TCEP), 100 mM NaCl; n=4; Table 1: 25 mM Hepes pH 7, 100 mM NaCl, 1 mM EDTA, 25 °C; Methods: 10 mM Hepes pH 7.0, 0.1 M NaCl, with or without 2 mM TCEP, 10 nM DNA. As to conditions: protein: recombinant; chain copies: 2; label: 5'-fluorescein on strand 1; blunt.

B1: Vibrio cholerae HlyU (natural protein)
chain: T1 sequence
notes: also called VcHlyU; WT HlyU
With B1, the “stoichiometry N” value in data set [1] is 2.

B2: hlyO operator (hlyA promoter) (dsDNA)
DNA 1: TATAAATTAATTCAGACTAAATTAGTTCAAA
DNA 2: TTTGAACTAATTTAGTCTGAATTAATTTATA
In the case of B2, the Ka with HlyU (VcHlyU), WT [2] was 0.19 ± 0.03 10^9 M^-1; in the data set with HlyU (VcHlyU), WT [3], 0.4 ± 0.08 10^9 M^-1.

For the origin of these results see publication PMC10509353, “Increased intracellular persulfide levels attenuate HlyU-mediated hemolysin transcriptional activation in Vibrio cholerae” (The Journal of Biological Chemistry, 2023).
